Self-cleavage data for 167 variants are collected here from the RNAGym collection of RNA variant scans (doi:10.7554/elife.80360).

B1: Twister Ribozyme (parent)
chain: AACACUGCCAAUGCCGGUCCCAAGCCCGGAUAAAAGUGGAGGGGGCGG

Variants of B1 are the subject of the data set. Nature of the data set: self-cleavage, relative activity (ratio to wild type); higher = more cleavage; co-transcriptional.
Consider C25G A33C, for which the self-cleavage stood at 0.227. Under C25G A33U stands 0.246; under C25A A35C, 0.141; under C25A A35G, 0.0612. In the case of C25A A35U it was 0.135. Under C25A G28A stands 0.166; under C25A C26G, 0.0788; under C25A U37A, 0.106.

As for C25A U37G, the self-cleavage worked out at 0.0674. Under C26U G42C stands 0.15; under C26U G42A, 0.13; under C26U G42U, 0.15.

In the case of C26A U37A, the self-cleavage was found to be 0.118. In the case of C26A U37G it was 0.17. In the case of G24U A33G it was 0.104.

As for G24U A33U, the self-cleavage was determined as 0.121.

With G24U A33C, the self-cleavage was found to be 0.142. Under C26G A34C stands 0.0761; under C27A G43U, 0.122.

As to G24C C27G, the self-cleavage amounted to 0.134. In the case of G24C C27A it was 0.121; in that of C26G G29A, 0.132; in that of C26G G29C, 0.134. In the case of C26G G29U it was 0.0569. Under C25A A34G stands 0.1; under C25A A34U, 0.0738.

Consider G24C G45A, for which the self-cleavage amounted to 0.0924. In the case of G24C G45C it was 0.0828. Under C26G A32G stands 0.316; under C26G A32C, 0.141; under G24A U31A, 0.106. Turning to G24A U31C, the self-cleavage was 0.0777.

With C25U G41A, the self-cleavage was 0.194. Turning to C25U G41U, the self-cleavage is 0.198.

On to G24U G38C, for which the self-cleavage turned out to be 0.103. In the case of C26A A33U it was 0.534. Under C26A G36A stands 0.0875; under C25U G42C, 0.154. In the case of C25U G42A it was 0.148; in that of C25U G42U, 0.0953; in that of G24C G29C, 0.104.

For the variant C25A G36C, the self-cleavage stood at 0.0709. Turning to C26G A30U, the self-cleavage was 0.295. In the case of C26G A30C it was 0.0641. In the case of C25G G43U it was 0.133. On to C25G G42U, for which the self-cleavage is 0.112. Under G24U A34U stands 0.116; under C25G G48A, 0.193.

Turning to C25G G48U, the self-cleavage was 0.21. On to C25G G48C, for which the self-cleavage stood at 0.167. In the case of C27A A30G it was 0.529. Under G24U G43C stands 0.076; under G24C G44C, 0.0955; under G24C G44A, 0.0864.

C25A A30G: the self-cleavage worked out at 0.233. In the case of C25A A30C it was 0.0625; in that of G24A G43C, 0.107; in that of G24A G43A, 0.102. As for G24A G48U, the self-cleavage came to 0.0761. Under G24A G48C stands 0.112; under G24A G48A, 0.121; under G24A G28A, 0.0708.

Regarding C25U G43C, the self-cleavage was determined as 0.102.

For the variant C25U G43A, the self-cleavage came out at 0.151.

With C26U A30U, the self-cleavage is 0.556.

As for C25A A40G, the self-cleavage is 0.0786. Turning to C25A A40C, the self-cleavage was 0.114. In the case of C25G G28U it was 0.259; in that of C25G G28A, 0.346; in that of C26U C46U, 0.519. In the case of C26U C46G it was 0.307; in that of C26U C46A, 0.207.

In the case of C25A A33C, the self-cleavage was found to be 0.0788. In the case of G24U G48A it was 0.0944; in that of G24U G48U, 0.0921; in that of C25U C27U, 0.74. Under C25U C27G stands 0.101; under C25U C27A, 0.509; under G24U C46U, 0.0749. In the case of G24U C46A it was 0.0884; in that of C27A A34U, 0.145. With G24U G29A, the self-cleavage came out at 0.127. In the case of C27A G45C it was 0.144; in that of C25A G48C, 0.137. Take C25A C46U: the self-cleavage came to 0.104. In the case of C25A C46A it was 0.07; in that of C25A C46G, 0.0534; in that of C25G G41U, 0.133.

With C25G G41C, the self-cleavage was 0.133. In the case of C26A A34G it was 0.156.

In the case of C26A A34U, the self-cleavage was determined as 0.177. In the case of C26A A34C it was 0.0918; in that of G24A A35G, 0.0812; in that of G24C G28C, 0.135. Under G24C G28U stands 0.0961. In the case of G24C G28A it was 0.0981; in that of C26A G44U, 0.456.

For C26A G44A, the self-cleavage came to 0.562. In the case of C26U G29A it was 0.212; in that of G24C A35C, 0.0752. In the case of G24U G39U it was 0.0828. Under C26U G45C stands 0.0973.

On to C26U G45A, for which the self-cleavage is 0.232.

Take C26A G45C: the self-cleavage is 0.123. Under G24C G36U stands 0.0983; under C26U G47A, 0.149; under C26U G47U, 0.15. In the case of C26U G47C it was 0.181; in that of C25U A33C, 0.791. With C25U A40G, the self-cleavage amounted to 0.121. Under C26A U31G stands 0.691. In the case of G24C A33U it was 0.0768.

As for G24C A33C, the self-cleavage came to 0.146. With G24C A34U, the self-cleavage turned out to be 0.0578.

On to G24C A34C, for which the self-cleavage was 0.0955. In the case of C26A A30G it was 0.348.

Turning to G24U G36C, the self-cleavage came out at 0.0879.

G24U G36A: the self-cleavage stood at 0.124. In the case of C26G C46G it was 0.218; in that of C26G C46A, 0.153. In the case of C26U G39U it was 0.102; in that of C26U G39C, 0.0911; in that of C25U A30C, 0.53.

With G24A G39U, the self-cleavage worked out at 0.0747.

For the variant G24A G39A, the self-cleavage was 0.106. Turning to C26G C27U, the self-cleavage was 0.0811.

For C26A G38C, the self-cleavage is 0.395. Under C26U A40U stands 0.131; under C26U A40C, 0.131. Under C26U A40G stands 0.0722. In the case of C26U A33U it was 0.266. With C26U A33G, the self-cleavage turned out to be 0.17.

Consider C26U A33C, for which the self-cleavage is 0.203.

C25G G44C: the self-cleavage is 0.248.

Turning to C25G G44U, the self-cleavage was found to be 0.197. Under C26G G42U stands 0.13; under G24A G36U, 0.0791.

In the case of G24A G36A, the self-cleavage was found to be 0.0947. In the case of C25G G38C it was 0.229; in that of C25A U31G, 0.127; in that of C25A U31C, 0.138. With C25A G41A, the self-cleavage was 0.074.

For C25A G41C, the self-cleavage came to 0.106. In the case of G24C A40U it was 0.0978.

With C26G G43U, the self-cleavage amounted to 0.138. In the case of C26G A40C it was 0.113; in that of C26G A40U, 0.12. In the case of G24U A35C it was 0.133; in that of G24U A35U, 0.175; in that of G24U A40G, 0.0745. In the case of G24U A30C it was 0.0633; in that of C25A G38A, 0.0977. For C25A G38C, the self-cleavage amounted to 0.126. Under C26A G41A stands 0.101; under C26A G41U, 0.154.

For C26A G41C, the self-cleavage is 0.124. Under G24C G41A stands 0.109; under G24C U31A, 0.0517; under C26A A32G, 0.636. Under C27A G28C stands 0.323; under C27A G28U, 0.37; under G24A G38U, 0.126. For the variant C26U G38U, the self-cleavage is 0.201.

For the variant C26U G43U, the self-cleavage turned out to be 0.111.

For the variant C26U G43A, the self-cleavage was found to be 0.125. In the case of C26U G43C it was 0.0933; in that of C25G U37C, 0.102.
